assay: yeast display, Sf9 membrane polyspecificity reagent, FACS + sequencing; frameworks hold sequencing errors
How it was run: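 After 36–48 hours of galactose induction, yeast (Saccharomyces cerevisiae BJ5465) displaying a synthetic nanobody library were stained at 4 °C for 1 hour with 10% biotinylated, detergent-solubilized Sf9 membrane reagent. Streptavidin microbeads enriched the stained cells before FACS sorting into low and high (top ~1%) gates on anti-HA and streptavidin fluorescence. Each clone's polyreactivity label reflects its gate of origin.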

| Sequence | polyreactivity (PSR sort gate) |
| --- | --- |
| QVQLVESGGVLVQAGGSLRLSCAASGSIFRGYAMGCYRQAPGKERELVAAINTSGGRTYYADSVKGRFTISRDNAKNTVYLQMIRLKPDDTAVYYCATEYYQAKREDYWGQGTQVTVSS | high polyreactivity |
| QVQLVESGGVLVQAGGSLRLSCAASGSIFSGYSMGWYRQAPGKERELVAAITWNGGSTYYADSVKGRFTISRDNAKNTVYLQMNILKPEDTAVYYCAAERAARFNYWGQGTQVTVSS | high polyreactivity |
| QVQLVESGGVLVQAGGSLRLSCAASGSISSVYAMGWYRQAPGKDRELVAGITSGGSTNYADSVKGRFTISRDNAKITVYLQMNSLKPEDTAVYYCAAVYKGAGTHFDVFVKEFDYWRQGTQVTVSS | low polyreactivity |
| QVQLVESGGVLVQAGGSLRLSCAASGSTFEDYTMGWYRQAPRKVRELVAISTRGGTYYADSVKGRFTSSRDNPKNTVYLQRNSLKPEDTAVYYCNKRFGYYSWDQYSRDYWGQGTQVTVSS | low polyreactivity |
| QVQLVESGGVLVQAGGSLRLSCAASGSTFGKNTMGWYRQAPGKERELVAAISRGVSTYYAYSVKGRFTISRDNATNTFYLQMNSLKPEDTALYYCAAQEAYRWYGFDFWGQGTQVTVLS | high polyreactivity |
| QVQLVESGGVLVQAGGSLRLSCAASGSTFGRYTMGWYRQAPGKERELVAVITKSGGSTYYADSVKGRFTISRDNAKNTVYLQMNSLKPEDTAVYYCAAGVAWRFYSWGQGTQVTVSS | high polyreactivity |
| QVQLVESGGVLVQAGGSLRLSCAASGSTFYPNAMGWYRQAPGQEREFVAAISDGGSTTYADSVKGRFTISRDNAKNTVYLQMNSLKPEDTAVYYCNARVGSYTPSWYYQEFDYWGQGTQVTVSS | low polyreactivity |
| QVQLVESGGVLVQAGGSLRLSCAASGSTIPYNTMGWYRQAPRKERELVAAITRTSYADTVKGRFTISRDNAKNTVYLEMISLKREDTAVYYCAADKSFYYYLFGYDYWGQGTQVTVSS | low polyreactivity |
| QVQLVESGGVLVQAGGSLRLSCAASRGIFSGYAMGWYRQAPGKERELVASITRRGSSTYYADSVKGPFTISRDSAKNTVYLQMNSLNPEDTAVYYCHAVLRYHVLYRGYDYWGQGTQLTVSS | high polyreactivity |
| QVQLVESGGVLVQAGGSLRLSCAPSGRIFNYYAMGWYRQAPGKERELVAAISSSGGRTYYADSVKGRFTISRDNAKNTVYLQMNSLKPEDTAVYYCAAYDSLRYSTYDYWGQGTQVTVSS | high polyreactivity |
| QVQLVESGGVLVQAGGSLRLSCASSGSTFTKYAMGWYRQAPGKERELVAAISRSGGGTYYADSVKGRFTISRDNAKNTVYLQMNSLKPEDTAVYYCNAALFRGAQFDYWGQGTQVTVSS | high polyreactivity |
| QVQLVESGGVLVQAGGSLRLSCDASGRIFKYNAMGWYRQAPGKERELVDVITSGVSTYYADSVKGRFTISRDNAKNTVYLQMNSLKPEDTAVYYCAKKYYKVHKFDYWCQGTQVTVSS | low polyreactivity |
| QVQLVESGGVLVQAGGSLRLSCPASGRTFTYNAMGWYRQAPGKERELVAVITNSGGSTYYADSVKGRFTISRDNPKNTVYLQMNSLKPEDTAVYYCAADYFYRYWYRFYYWGQGTQVTVSS | high polyreactivity |
| QVQLVESGGVLVQAGGSLRLTCAASASILYVYAMGWYRHAPGKERELVATITGRVVSTNYADSVKGRFTSSRDNAKNTVYLQMNSLKTEDTALYYCAASTRRRRGEYDYCGQGTQVTVSS | high polyreactivity |
| QVQLVESGGVLVQAGGSLRLTCAASGSNFVTNAMGWYRQAPGKERELVAAISVSGGSTYYADSVKGRFTISRDNAKNTVYLQMNSLKPEDTAVYYCNTVRSPAGHDYWGQGTQVTVSS | low polyreactivity |
| QVQLVESGGVLVQAGGSPRLSCAASGRTYAYYPMGWYRQAPGKERELVARITRGGSTYYADSVKGRFTISRDNAKNSVYLQMYSLIPDDTAVYYCNRYQWQHYTSVYLRTGSDYWGQGTQVTVSS | high polyreactivity |
| QVQLVESGGVLVQAVASLRVSCAASGRILDYNTMGWYRPAPGKERELVAAISFSGGRTYYADSVKGRFTISRDNAKNTFYLQMNSLKPEDTAVYYCAATVGAASRYYYWGQGSQVTVSS | high polyreactivity |
| QVQLVESGGVLVQSGGSLRLSCAASGITLSRYAMGWYRQAPGKERELVAAISRRGGSTYYADSVKGRFTISRDNAKNSVYLQLNSLKPEDTAVDYCAATRYASLSDSGFNYWGQGTQVTVSS | high polyreactivity |
| QVQLVESGGVLVQSGGSLRLSCAASGLIFTWNAMGWYRQAPGKERELVAPISTGGSTSYADSVKGRFTISRDNAKNTVYLQMNSLKPEDTAVYYCARDSSIWSHGSWYDYWGQGTHVTVSS | low polyreactivity |
| QVQLVESGKGLVQAGGILRLSCAASGLIFGFNAMGWYRQAPGKERELVAAIYGSGGTTYYADSVKGRFTISRDNAKNTVYLQMNSLKPEDTAVYYCAGEYIYNVQFSWPKTPAFDYWGQGTLVTVSS | low polyreactivity |
| QVQLVESGKGLVQAGGSLRLSCAASGITITIYAMGWYRNAPGKERELVAAITWRGGRTYYADSVKGRFTISRDNAKNTVYLQMNSLKPEDTAVYYCNALFGSYPYYWFEYWGHGTQVTVSS | high polyreactivity |
| QVQLVESGRALVQAGGSLRLSCAASGNTFEDYAMGWYRQAPGKERELVAAINSGGSTNYADSVKGRFTISRDNAKNTVYLQLNSLKPEDTAVYYCAAEPGEGFDYWGQGTQVTVSS | low polyreactivity |

| Sequence | polyreactivity (PSR sort gate) |
| --- | --- |
| QVQLVESGRCLVQAGCSLRLSCAASGYTFSRSAMGWYRQAPGKERELVAAISWSGGSTYYADSVKGRFTISRDNAKNTVYLQMNSLKPEDTAVYYCIKVRYVSQTAFYYWGQGTQVTVSS | high polyreactivity |
| QVQLVESGRCLVQDGRSLRLSCAASGRTFYGNAMGWYRQAPAKERELVAAISRSGGRTYYADSVKGRFTISRDNAKNTVYLEMISLKPEDTAVYYFASEIRFWYGYYYWGQGTQVTVSS | high polyreactivity |
| QVQLVESGRGIVQAGRSLRLSCPASGRIYPNAIGWYRQAPGKEREFVAAISRSDGSTYYADSVNGRFTISRDNAKNTVYLQMNSLKPEDTAVYYCATDYRFTSRTANFDYWGQGTLVTVSS | low polyreactivity |
| QVQLVESGRGLDQAGGSLRLSCAASASTFAWYDMGCYRHAPGKEREFVAAIDYGGGSTYADSVKGRFTISRDNAKNTVYLQMNSLKPEDTAVYYCNADNWVYLYDYWGQGTQVTVSS | low polyreactivity |
| QVQLVESGRGLFQAGGSLRLSCAASGFTGSYAMGWYRQAPGKVREFVAAISYRGSSTYYADSVKGRFTISRDNAKNTVYLQMNSLKPEDTAVYYCNSVHYVLYGDYDYWGQGTQVTVSS | high polyreactivity |
| QVQLVESGRGLLQAGGSLRLSCASSGGIFPKYAMGWYRQAPGKEREFVASISYRGGSTYYADSVKGRFTISRDNAKNTVYFQMNSLKPDDTAVFYCAKPTYRFYWGDFDYWGQGSQVTVSS | low polyreactivity |
| QVQLVESGRGLVHAGGSLRLSCAASGSIFSPYAMGWYRPAPGKEREFVASITFNGGSTYYADSVKGRFTISRDNAKNTVYLQMTSLKPEDTAVYYCAATYWYDTYWLMDYWGQGTQVTVSS | high polyreactivity |
| QVQLVESGRGLVQAGCSLRLSCAASGSIFEWYAMGWSRQAPGKEMELVADITYNGGSTYYADSVKGRFTISRDNAKNTVYLQMNSLKPEDTAVYYCAADYFVQVPDYYYASEYGYWGQGTQVTVSS | low polyreactivity |
| QVQLVESGRGLVQAGGSLLLSCAASGSTFDVYAMGWYRQAPGKERELVAAIRSSGGSTFYADSVKGRFTISRDNAKNIVYLQMNSLKPEDTAVYYCAARSFVVSGYNKYYEYGDWGQGTQVTVSS | low polyreactivity |
| QVQLVESGRGLVQAGGSLRISCAASGITFVFYAMGWYRQAPGKEIELVAAMSWSGGITYYADSVKGRFTISRDNSKNSVYLQMNSLKPEDTAVYYCAATKRQTKYYGGTTDSIRYYWGQGTQVTVSS | low polyreactivity |
| QVQLVESGRGLVQAGGSLRLICAASGNIFWYNAMGWYRQAPGKERELVAAINWSGGSTYYADSVKGRFRISRDNAKNTVYLEMNSLKPEDTAVYYCYAEWYDGDALQWVEYWGQGTQVTVSS | high polyreactivity |
| QVQLVESGRGLVQAGGSLRLICAASRSIFSYNAMGWYRQAPGKERELVAAIRRGGGTYYADSVKGRFTISRDNAKNTVYLQMISLKPEDTAVYYCNAVRGNNFLGDGYWGLGTQVTVSS | high polyreactivity |
| QVQLVESGRGLVQAGGSLRLRCAASGSTFVYNTMGWYRQAPGKEMELVASISSDGNTYYADSVKGRFTISRDNAKNTVYLQMNSLKPEDTAVFYCGARYYYDWRFVGYDYWGQGTQVTVSS | low polyreactivity |
| QVQLVESGRGLVQAGGSLRLRCAASGYTFTRYAMGWYRQAPRKESELVAAISTSGGRTYYSDSEKGRFTISRDNAKNTVYLQMNRLKPEDTAVYSCAAPIRDGRYDYWGQGTQVTVSS | high polyreactivity |
| QVQLVESGRGLVQAGGSLRLRCASSGRTFSSYAMGWSRQAPGKARELVAAITKRGGNTYYADSVKGRFTISRDNAKNTVYLQMNSLNPEDTAVYYCAAGWERFRNYNYWGQVTQVTVSS | high polyreactivity |
| QVQLVESGRGLVQAGGSLRLSCAASGFTCRWYAIGLYRQAPGKERELVAAISRDGSTNYADSVKGRFTISRDNAKNTVYLQMNSLKPEDTSVYYCAKRYYRYPYSQGDYWGQGTQVTVSS | high polyreactivity |
| QVQLVESGRGLVQAGGSLRLSCAASGFTFVWYAMGWYIPAPGKERELVAAISRRGTRTYYADSVKGRFTISRDNAKNTVYLQMNSLKPEDTAVYYCASESILGYDYWGQSTQVTVSS | high polyreactivity |
| QVQLVESGRGLVQAGGSLRLSCAASGIIFYENAMGWYRQAPGKERELVADITQSGGSTYYADSVKGRFTISRDNAKNTVYLQMNSLKPEDTGVYYCAADGYDPYGGLYDYWGQGNQVTVSS | low polyreactivity |
| QVQLVESGRGLVQAGGSLRLSCAASGIIFYENTMGWYRLAPGKERELVASISWSGGRTYNADSVKGRFTISRDNAKNTVDLQMNSLKPEDTAVYYCAGRPYYLYIYNFWGQGTQVTVSS | high polyreactivity |
| QVQLVESGRGLVQAGGSLRLSCAASGIILGRYAKGWYRQAPGKERELVAVITGDGSTTYADSVKGRFTISRDNAKNTVYLQMNSLKPEDTAVYYCNAAVEGSLNGYEYWGQGTQVTVSS | low polyreactivity |
| QVQLVESGRGLVQAGGSLRLSCAASGITFGYYDMGWYRQAPGKERELVAAIDWTGGGTYYADSVKGRFTISRDYAKNTVYLQMNSVKPVDTAVYYCIDHAGGDSGVSYYPEYDYWGQGTQVTLSS | low polyreactivity |

— the nanobody polyreactivity screen of Harvey et al. (2022)
